Measured values: publication PMC9010608

Assays:
[1] = molecular target: T1, Strep-HP1021 (orphan response regulator) (Helicobacter pylori 26695) (UniProt O25665); assay: EMSA; details: EMSA: 50 mM Tris-Cl, 250 mM KCl, 5 mM DTT, pH 7.0, 100 ng/uL sheared salmon sperm DNA, 37 C 30 min, 20 uL, 4% native PAGE, footprinting: 37 C 30 min
T1 sequence: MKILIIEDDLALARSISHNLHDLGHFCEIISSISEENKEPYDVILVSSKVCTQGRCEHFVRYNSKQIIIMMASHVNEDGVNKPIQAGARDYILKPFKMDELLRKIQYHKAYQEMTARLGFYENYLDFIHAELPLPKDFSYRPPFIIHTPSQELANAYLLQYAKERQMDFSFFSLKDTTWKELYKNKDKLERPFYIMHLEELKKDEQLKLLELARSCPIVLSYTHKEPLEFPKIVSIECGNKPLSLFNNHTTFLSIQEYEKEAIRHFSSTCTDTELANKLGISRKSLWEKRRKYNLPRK

[2] = molecular target: T1, Strep-HP1021 (orphan response regulator) (Helicobacter pylori 26695); assay: competition; details: EMSA: 50 mM Tris-Cl, 250 mM KCl, 5 mM DTT, pH 7.0, 100 ng/uL sheared salmon sperm DNA, 37 C 30 min, 20 uL, 4% native PAGE, footprinting: 37 C 30 min

Sequence	binding [1]	binding [2]
CCATTATCACTCCAATTTTAATTCTCATTTTTTTGCGAGTTTTTGATCTTTATAAATTCTAAAGGGGTATTAAACGCACTTCTAATAACGATTTTATAGCGCTTCAAAGATATAACACTAATTCATTTTAAATAATAATTAGTTAATGAACGCTTCCAGCCGGCTTCGTCAGTCGAAACATGTACGTGATTACATCCAACCTTGATTTCGTTATGTCTTCAAGGAAAAACACTTTAAGAATAGGAGAATAAG (double strand) [PureAmt (mutated ureAB promoter probe)]	no binding	
CCATTATCACTCCAATTTTAATTCTCATTTTTTTGCGAGTTTTTGATCTTTATAAATTCTAAAGGGGTATTAAACGCACTTCTAATAACGATTTTATAGCGCTTCAAAGATATAACACTAATTCATTTTAAATAATAATTAGTTAATGAACGCTTCTGTTAATCTTAGTAAATCAAAACATTGCTACAATTACATCCAACCTTGATTTCGTTATGTCTTCAAGGAAAAACACTTTAAGAATAGGAGAATAAG (double strand) [PureA (ureAB promoter, AF700 probe)]	binds	
CCATTATCACTCCAATTTTAATTCTCATTTTTTTGCGAGTTTTTGATCTTTATAAATTCTAAAGGGGTATTAAACGCACTTCTAATAACGATTTTATAGCGCTTCAAAGATATAACACTAATTCATTTTAAATAATAATTAGTTAATGAACGCTTCTGTTAATCTTAGTAAATCAAAACATTGCTACAATTACATCCAACCTTGATTTCGTTATGTCTTCAAGGAAAAACACTTTAAGAATAGGAGAATAAG (double strand) [PureA cold probe (unlabeled)]		binds
